From the supplement of paper PMC7877785
± gives the uncertainty stated by the source.

Assay: self-splicing fitness, log relative to wild type (ln ratio); higher = more splicing; Tetrahymena group I intron in knt gene, E. coli kanamycin selection, DiMSum; sequences stand for … in CUCUCU…GGAGGGAAAAGUUAUCAGGCAUGCACCUGGUAGCUAGUCUUUAAACCAAUAGAUUGCAUCGGUUUAAAAGGCAAGACCGUCAAAUUGCGGGAAAGGGGUCAACAGCCGUUCAGUACCAAGUCUCAGGGGAAACUUUGAGAUGGCCUUGCAAAGGGUAUGGUAAUAAGCUGACGGACAUGGUCCUAACCACGCAGCCAAGUCCUAAGUCAACAGAUCUUCUGUUGAUAUGGAUGCAGUUCACAGACUAAAUGUCGGUCGGGGAAGAUGUAUUCUUCUCAUAAGAUAUAGUCGGACCUCUCCUUAAUGGGAGCUAGCGGAUGAAGUGAUGCAACACUGGAGCCGCUGGGAACUAAUUUGUAUGCGAAAGUAUAUUGAUUAGUUUUGGAGUACUCGUGGUCG
In short: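 The eight P1ex-region nucleotides of an intron in the knt kanamycin-resistance gene on pET-22b(+) were all randomised and the library put into E. coli BL21(DE3). Six replicate transformations were grown overnight at 37°C or 30°C on LB agar with or without 25 μg/mL kanamycin, together with 100 μg/mL carbenicillin, 50 μM IPTG and 0.2% rhamnose. Colonies were pooled and amplicon-sequenced on an Illumina HiSeq 2500. Fitness from DiMSum is the error-weighted combination of wild-type-normalised replicate fold changes, kanamycin over none.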

Sequence | self-splicing fitness (ln) (37 °C) | self-splicing fitness (ln) (30 °C)
UGCUAGCAAUAUUACGGAGC | -1.42 ± 0.41 | 
UGCUAGCAAUAUUACGGAGG | -1.13 ± 0.13 | -2.23 ± 0.14
UGCUAGCAAUAUUACGGCGC | 1.38 ± 0.48 | -3.41 ± 0.37
UGCUAGCAAUAUUACGGGGG | -2.32 ± 0.32 | -0.837 ± 0.13
UGCUAGCAAUAUUACGGGUA | -0.151 ± 0.12 | -0.992 ± 0.14
UGCUAGCAAUAUUACGGGUU | -1.33 ± 0.14 | -2.39 ± 0.14
UGCUAGCAAUAUUACGGUUG | -0.318 ± 0.082 | -0.971 ± 0.06
UGCUAGCAAUAUUACGGUUU | -0.216 ± 0.073 | -1.27 ± 0.062
UGCUAGCAAUAUUACGUCAG | -1.33 ± 0.12 | -2.36 ± 0.12
UGCUAGCAAUAUUACGUUAC | -1.91 ± 0.23 | 
UGCUAGCAAUAUUACGUUGC | -1.77 ± 0.23 | -3.53 ± 0.34
UGCUAGCAAUAUUACGUUUU | -1.94 ± 0.14 | -3.29 ± 0.18
UGGAAGCAAUAUUACGAAAA | -1.13 ± 0.19 | -1.93 ± 0.22
UGGAAGCAAUAUUACGAAUG | -0.211 ± 0.12 | -0.927 ± 0.11
UGGAAGCAAUAUUACGACUA | 0.331 ± 0.11 | -0.154 ± 0.074
UGGAAGCAAUAUUACGAUCG | 0.382 ± 0.15 | 0.288 ± 0.14
UGGAAGCAAUAUUACGCCUG | -0.15 ± 0.099 | -0.491 ± 0.083
UGGAAGCAAUAUUACGCGAG | 0.167 ± 0.16 | -1.26 ± 0.19
UGGAAGCAAUAUUACGCGCA | 0.365 ± 0.13 | -0.534 ± 0.13
UGGAAGCAAUAUUACGCGUA | -0.131 ± 0.15 | -1.21 ± 0.11
UGGAAGCAAUAUUACGCUAC | -2.24 ± 0.21 | -4.5 ± 0.34
UGGAAGCAAUAUUACGCUCA | -0.00417 ± 0.13 | -0.562 ± 0.11
UGGAAGCAAUAUUACGGCCU | -0.639 ± 0.13 | -0.816 ± 0.11
UGGAAGCAAUAUUACGGCGG | -0.13 ± 0.1 | -0.545 ± 0.08
UGGAAGCAAUAUUACGGCUA | -0.0289 ± 0.23 | -0.499 ± 0.14

Sequence | self-splicing fitness (ln) (37 °C) | self-splicing fitness (ln) (30 °C)
UGGAAGCAAUAUUACGGUGU | -3.33 ± 0.27 | -1.46 ± 0.14
UGGAAGCAAUAUUACGUAGA | -1.01 ± 0.13 | -2.06 ± 0.13
UGGAAGCAAUAUUACGUCAC | -1.54 ± 0.24 | 
UGGAAGCAAUAUUACGUGAC | -1.75 ± 0.4 | -2.76 ± 0.34
UGGAAGCAAUAUUACGUGGU | -2.25 ± 0.3 | -3.53 ± 0.49
UGGAAGCAAUAUUACGUUCU | -1.31 ± 0.17 | -3.42 ± 0.25
UGGAAGCAAUAUUACGUUGC | -3.11 ± 0.4 | -4.13 ± 0.47
UGGAAGCAAUAUUACGUUGG | -0.902 ± 0.14 | -2.69 ± 0.19
UGGCAGCAAUAUUACGACGU | -0.565 ± 0.2 | -1.84 ± 0.16
UGGCAGCAAUAUUACGACUC | -1.1 ± 0.12 | -1 ± 0.1
UGGCAGCAAUAUUACGAUAC | -1.99 ± 0.38 | -3.31 ± 0.48
UGGCAGCAAUAUUACGAUUU | -0.484 ± 0.1 | -1.66 ± 0.086
UGGCAGCAAUAUUACGCAGA | -0.916 ± 0.12 | -1.21 ± 0.14
UGGCAGCAAUAUUACGCAGG | -1.23 ± 0.12 | -2.79 ± 0.16
UGGCAGCAAUAUUACGCCAG | -1.59 ± 0.21 | -1.46 ± 0.14
UGGCAGCAAUAUUACGCCGG | -0.838 ± 0.2 | -1.64 ± 0.14
UGGCAGCAAUAUUACGGAAC | -1.72 ± 0.21 | -2.89 ± 0.36
UGGCAGCAAUAUUACGGAAG | -0.447 ± 0.12 | -1.78 ± 0.13
UGGCAGCAAUAUUACGGGUG | -0.596 ± 0.088 | -0.883 ± 0.071
UGGCAGCAAUAUUACGGUAA | 0.0797 ± 0.093 | -0.651 ± 0.089
UGGCAGCAAUAUUACGGUCU | 0.29 ± 0.087 | -0.537 ± 0.066
UGGCAGCAAUAUUACGUACG | -0.265 ± 0.12 | -0.616 ± 0.077
UGGCAGCAAUAUUACGUGUA | -0.712 ± 0.084 | -1.54 ± 0.089
UGGGAGCAAUAUUACGAAAU |  | -1.47 ± 0.19
UGGGAGCAAUAUUACGAACG | -0.54 ± 0.16 | -1.07 ± 0.1

Sequence | self-splicing fitness (ln) (37 °C) | self-splicing fitness (ln) (30 °C)
UGGGAGCAAUAUUACGAGAU | -2.04 ± 0.47 | -1.91 ± 0.27
UGGGAGCAAUAUUACGAUCC |  | -1.41 ± 0.39
UGGGAGCAAUAUUACGAUGA | -1.63 ± 0.42 | 
UGGGAGCAAUAUUACGCCCA |  | -1.61 ± 0.4
UGGGAGCAAUAUUACGCCUU | -1.66 ± 0.31 | -2.66 ± 0.26
UGGGAGCAAUAUUACGCGGC | -1.35 ± 0.28 | -2.57 ± 0.34
UGGGAGCAAUAUUACGCUCC | -2.7 ± 0.44 | 
UGGGAGCAAUAUUACGCUGU | -1.2 ± 0.41 | 
UGGGAGCAAUAUUACGGCAA | -0.863 ± 0.32 | -2.97 ± 0.47
UGGGAGCAAUAUUACGGGAG | -2.94 ± 0.43 | -2.83 ± 0.25
UGGGAGCAAUAUUACGGGGC | -2.07 ± 0.34 | -2.62 ± 0.48
UGGGAGCAAUAUUACGGUAA |  | -2.32 ± 0.45
UGGGAGCAAUAUUACGGUCA | -0.291 ± 0.14 | -0.375 ± 0.12
UGGGAGCAAUAUUACGGUUC | -0.762 ± 0.44 | 
UGGGAGCAAUAUUACGUGAC | -2.53 ± 0.44 | 
UGGGAGCAAUAUUACGUUAU | -1.86 ± 0.34 | -3.22 ± 0.27
UGGGAGCAAUAUUACGUUGG | -2.85 ± 0.26 | -3.45 ± 0.22
UGGGAGCAAUAUUACGUUUU | -2.51 ± 0.33 | -4.43 ± 0.4
UGGUAGCAAUAUUACGAAAU | -3.17 ± 0.31 | -2.72 ± 0.28
UGGUAGCAAUAUUACGAAUG | -1.02 ± 0.12 | -1.95 ± 0.12
UGGUAGCAAUAUUACGAGUC | -2.29 ± 0.32 | 
UGGUAGCAAUAUUACGAGUU | -2.75 ± 0.24 | -2.91 ± 0.24
UGGUAGCAAUAUUACGAUAG | -0.14 ± 0.14 | -1.94 ± 0.2
UGGUAGCAAUAUUACGCAAA | -1.59 ± 0.17 | -2.06 ± 0.29
UGGUAGCAAUAUUACGCAGU | -2.76 ± 0.4 | -3.14 ± 0.4

Sequence | self-splicing fitness (ln) (37 °C) | self-splicing fitness (ln) (30 °C)
UGGUAGCAAUAUUACGCAUG | 0.872 ± 0.14 | -1.33 ± 0.1
UGGUAGCAAUAUUACGCAUU | -1.66 ± 0.19 | -1.88 ± 0.15
UGGUAGCAAUAUUACGCGCC | -2.02 ± 0.42 | -1.45 ± 0.3
UGGUAGCAAUAUUACGCGGA | -0.911 ± 0.17 | -1.86 ± 0.15
UGGUAGCAAUAUUACGCUAA | -0.667 ± 0.16 | -1.37 ± 0.14
UGGUAGCAAUAUUACGGAUC | -1.65 ± 0.32 | -2.25 ± 0.23
UGGUAGCAAUAUUACGGCAC | -1.39 ± 0.44 | 
UGGUAGCAAUAUUACGGCUC | -0.984 ± 0.14 | -0.912 ± 0.12
UGGUAGCAAUAUUACGGGUG | -0.609 ± 0.08 | -1.26 ± 0.1
UGGUAGCAAUAUUACGGUCC | -1.24 ± 0.33 | -2.05 ± 0.29
UGGUAGCAAUAUUACGGUCG | -0.0256 ± 0.16 | -0.382 ± 0.12
UGGUAGCAAUAUUACGUAGU | -1.04 ± 0.18 | -3.23 ± 0.22
UGGUAGCAAUAUUACGUGCA | -1.27 ± 0.1 | -0.653 ± 0.11
UGGUAGCAAUAUUACGUGGC | -3.04 ± 0.34 | -3.64 ± 0.32
UGGUAGCAAUAUUACGUGUA | -0.721 ± 0.1 | -2.09 ± 0.13
UGGUAGCAAUAUUACGUUAU | -3.33 ± 0.31 | -3.29 ± 0.28
UGGUAGCAAUAUUACGUUCU | -0.725 ± 0.14 | -1.48 ± 0.12
UGUAAGCAAUAUUACGAAAA | -1.15 ± 0.16 | -1.7 ± 0.15
UGUAAGCAAUAUUACGAAAU | -0.0192 ± 0.17 | -2.47 ± 0.18
UGUAAGCAAUAUUACGAAGU | -2.46 ± 0.35 | -3.23 ± 0.47
UGUAAGCAAUAUUACGACCG | 0.133 ± 0.18 | 0.431 ± 0.12
UGUAAGCAAUAUUACGCACG | -0.234 ± 0.11 | -0.966 ± 0.092
UGUAAGCAAUAUUACGCAGU | -2.22 ± 0.24 | -2.92 ± 0.22
UGUAAGCAAUAUUACGCAUU | -2.08 ± 0.24 | -3.58 ± 0.28
